According to publication PMC9411592 (2022):
Where a chain is given by its changes, count along the chain named. Read-outs that look alike come from different tables or passages of the source. One block for each binder: values may come before it.

Experiments:
[1] = target: L-TGF-β1 C4S/R249A (the 'WT' of the SPR assay) (human); test: SPR
[2] = target: L-TGF-β1 C4S/R249A (the 'WT' of the SPR assay) (human); test: SPR; remark: listed apart in the source

L-TGF-β1 C4S/R249A (the 'WT' of the SPR assay) (human), sequence (chain, as listed by the source R249A): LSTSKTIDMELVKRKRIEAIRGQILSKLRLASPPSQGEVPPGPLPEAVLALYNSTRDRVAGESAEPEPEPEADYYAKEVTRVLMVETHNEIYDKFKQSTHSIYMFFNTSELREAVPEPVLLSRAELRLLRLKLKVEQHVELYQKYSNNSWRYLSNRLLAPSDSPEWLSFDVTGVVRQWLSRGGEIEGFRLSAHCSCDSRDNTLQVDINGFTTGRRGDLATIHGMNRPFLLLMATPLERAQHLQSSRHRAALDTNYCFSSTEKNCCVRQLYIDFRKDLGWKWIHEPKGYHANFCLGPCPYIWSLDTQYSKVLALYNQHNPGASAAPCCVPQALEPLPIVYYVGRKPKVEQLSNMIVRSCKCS

koff [1]: 7.6e-05 s⁻¹
B3: αVβ8-IgG1 Fc (heterotetramer of αVβ8 linked by the IgG1 Fc fragment on the C-terminus of β8) (Fc fusion)
chain 1: FNLDVDSPAEYSGPEGSYFGFAVDFFVPSASSRMFLLVGAPKANTTQPGIVEGGQVLKCDWSSTRRCQPIEFDATGNRDYAKDDPLEFKSHQWFGASVRSKQDKILACAPLYHWRTEMKQEREPVGTCFLQDGTKTVEYAPCRSQDIDADGQGFCQGGFSIDFTKADRVLLGGPGSFYWQGQLISDQVAEIVSKYDPNVYSIKYNNQLATRTAQAIFDDSYLGYSVAVGDFNGDGIDDFVSGVPRAARTLGMVYIYDGKNMSSLYNFTGEQMAAYFGFSVAATDINGDDYADVFIGAPLFMDRGSDGKLQEVGQVSVSLQRASGDFQTTKLNGFEVFARFGSAIAPLGDLDQDGFNDIAIAAPYGGEDKKGIVYIFNGRSTGLNAVPSQILEGQWAARSGCPPSFGYSMKGATDIDKNGYPDLIVGAFGVDRAILYRARPVITVNAGLEVYPSILNQDNKTCSLPGTALKVSCFNVRFCLKADGKGVLPRKLNFQVELLLDKLKQKGAIRRALFLYSRSPSHSKNMTISRGGLMQCEELIAYLRDESEFRDKLTPITIFMEYRLDYRTAADTTGLQPILNQFTPANISRQAHILL
chain 2: EDNRCASSNAASCARCLALGPECGWCVQEDFISGGSRSERCDIVSNLISKGCSVDSIEYPSVHVIIPTENEINTQVTPGEVSIQLRPGAEANFMLKVHPLKKYPVDLYYLVDVSASMHNNIEKLNSVGNDLSRKMAFFSRDFRLGFGSYVDKTVSPYISIHPERIHNQCSDYNLDCMPPHGYIHVLSLTENITEFEKAVHRQKISGNIDTPEGGFDAMLQAAVCESHIGWRKEAKRLLLVMTDQTSHLALDSKLAGIVCPNDGNCHLKNNVYVKSTTMEHPSLGQLSEKLIDNNINVIFAVQGKQFHWYKDLLPLLPGTIAGEIESKAANLNNLVVEAYQKLISEVKVQVENQVQGIYFNITAICPDGSRKPGMEGCRNVTSNDEVLFNVTVTMKKCDVTGGKNYAIIKPIGFNETAKIHIHRNCSCQCEDNRGPKGKCVDETFLDSKCFQCDENK

koff [2]: 0.000142 s⁻¹
B5: integrin αVβ8-6DLL headpiece (the disulfide-linked loop of β8 substituted by that of β6) (complex)
chain 1: B3 chain 1
chain 2: B3 chain 2 with D171S, Y172I, N173P, L174Y, D175F

The next lines start with the binder.

B1: integrin αVβ8 headpiece (αV residues 1-594, β8 residues 1-456) (complex)
chain 1: FNLDVDSPAEYSGPEGSYFGFAVDFFVPSASSRMFLLVGAPKANTTQPGIVEGGQVLKCDWSSTRRCQPIEFDATGNRDYAKDDPLEFKSHQWFGASVRSKQDKILACAPLYHWRTEMKQEREPVGTCFLQDGTKTVEYAPCRSQDIDADGQGFCQGGFSIDFTKADRVLLGGPGSFYWQGQLISDQVAEIVSKYDPNVYSIKYNNQLATRTAQAIFDDSYLGYSVAVGDFNGDGIDDFVSGVPRAARTLGMVYIYDGKNMSSLYNFTGEQMAAYFGFSVAATDINGDDYADVFIGAPLFMDRGSDGKLQEVGQVSVSLQRASGDFQTTKLNGFEVFARFGSAIAPLGDLDQDGFNDIAIAAPYGGEDKKGIVYIFNGRSTGLNAVPSQILEGQWAARSGCPPSFGYSMKGATDIDKNGYPDLIVGAFGVDRAILYRARPVITVNAGLEVYPSILNQDNKTCSLPGTALKVSCFNVRFCLKADGKGVLPRKLNFQVELLLDKLKQKGAIRRALFLYSRSPSHSKNMTISRGGLMQCEELIAYLRDESEFRDKLTPITIFMEYRLDYRTAADTTGLQPILNQFTPANISRQAHILLD
chain 2: B3 chain 2
koff [1]: 0.00109 s⁻¹

B2: integrin αVβ6-8DLL headpiece (the disulfide-linked loop of β6 substituted by that of β8) (complex)
chain 1: B1 chain 1
chain 2: HVQGGCALGGAETCEDCLLIGPQCAWCAQENFTHPSGVGERCDTPANLLAKGCQLNFIENPVSQVEILKNKPLSVGRQKNSSDIVQIAPQSLILKLRPGGAQTLQVHVRQTEDYPVDLYYLMDLSASMDDDLNTIKELGSRLSKEMSKLTSNFRLGFGSFVEKPVSPFVKTTPEEIANPCSDYNLDCLPTFGFKHILPLTNDAERFNEIVKNQKISANIDTPEGGFDAIMQAAVCKEKIGWRNDSLHLLVFVSDADSHFGMDSKLAGIVCPNDGLCHLDSKNEYSMSTVLEYPTIGQLIDKLVQNNVLLIFAVTQEQVHLYENYAKLIPGATVGLLQKDSGNILQLIISAYEELRSEVELEVLGDTEGLNLSFTAICNNGTLFQHQKKCSHMKVGDTASFSVTVNIPHCERRSRHIIIKPVGLGDALELLVSPECNCDCQKEVEVNSSKCHHGNGSFQCGVCACHPGHMGPRCE
koff [2]: 0.00121 s⁻¹

B4: integrin αVβ6 headpiece (αV residues 1-594, β6 residues 1-474) (complex)
chain 1: B1 chain 1
chain 2: B2 chain 2 with D182S, Y183I, N184P, L185Y, D186F
koff [2]: 0.000107 s⁻¹
